We go through one molecule from patent US20260167710A1 (GlaxoSmithKline, published 2026).

One test addresses T1, hFcgRI (human, UniProt P12314 16-292).
T1 construct: extracellular domain; the chip carried an anti-poly-histidine IgG; also called recombinant soluble human Fc gamma receptor I
Description: SPR (ProteOn XPR36), anti-poly-histidine IgG surface, antibody as analyte, equilibrium fit, 25 C.

In a further test the target is T2, hFcgRIIb (human, UniProt P31994 43-217).
T2 construct: extracellular domain
T2 sequence (looked up): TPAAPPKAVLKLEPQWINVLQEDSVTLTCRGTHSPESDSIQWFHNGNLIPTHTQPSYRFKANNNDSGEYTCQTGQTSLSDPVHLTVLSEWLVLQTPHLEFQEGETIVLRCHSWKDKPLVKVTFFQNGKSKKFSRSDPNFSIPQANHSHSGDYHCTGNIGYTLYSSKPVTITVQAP
The test is described as above.

A further test concerns the target T3, hFcgRIIIa (F158) (human, UniProt P08637 17-208).
T3 construct: extracellular domain
The description is as above.

Another test concerns the target T4, hFcgRIIa (R131) (human, UniProt P12318 34-217).
T4 construct: extracellular domain
T4 sequence (looked up): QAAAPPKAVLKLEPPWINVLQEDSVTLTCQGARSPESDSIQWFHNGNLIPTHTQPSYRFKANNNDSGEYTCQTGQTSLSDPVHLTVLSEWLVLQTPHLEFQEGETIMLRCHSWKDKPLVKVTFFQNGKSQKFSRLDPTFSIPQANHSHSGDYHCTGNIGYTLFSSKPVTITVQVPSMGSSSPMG
Described as above.

The target of the next test is T5, hFcgRIIa (H131) (human, UniProt P12318 34-217).
T5 construct: extracellular domain; His at position 131 (mature numbering as commonly used)
T5 sequence (looked up): T4 sequence (looked up) with R134H
The test is described as above.

Another test addresses T6, hFcgRIIIa (V158) (human, UniProt P08637 17-208).
T6 construct: extracellular domain
The test is described as above.

Test [1] has as its target T7, cynomolgus recombinant neonatal receptor (FcRn) (cynomolgus monkey, UniProt Q8SPV9 24-297; Q8SPW0 21-119).
T7 construct: extracellular domain; beta-2-microglobulin is not mentioned; also called cyno FcRn; cynomolgus monkey FcRn
The test is described as follows: SPR (ProteOn XPR36), antibody captured by protein L, FcRn as analyte, equilibrium fit, pH 7.4, 25 C.

In general, Kd refers to the free concentration of one partner at which half of the binding sites on the other are occupied at equilibrium, for simple one-to-one binding.

Numbering of substitutions follows the chain as printed.

T1 sequence (P12314 16-292): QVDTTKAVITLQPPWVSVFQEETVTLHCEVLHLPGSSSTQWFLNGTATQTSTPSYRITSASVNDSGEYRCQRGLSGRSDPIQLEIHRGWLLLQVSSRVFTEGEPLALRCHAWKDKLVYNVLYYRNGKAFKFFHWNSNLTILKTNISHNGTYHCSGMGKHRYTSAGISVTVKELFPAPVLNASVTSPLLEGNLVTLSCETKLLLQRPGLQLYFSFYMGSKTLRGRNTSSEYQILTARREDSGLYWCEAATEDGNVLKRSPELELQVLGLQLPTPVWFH
T3 sequence (P08637 17-208): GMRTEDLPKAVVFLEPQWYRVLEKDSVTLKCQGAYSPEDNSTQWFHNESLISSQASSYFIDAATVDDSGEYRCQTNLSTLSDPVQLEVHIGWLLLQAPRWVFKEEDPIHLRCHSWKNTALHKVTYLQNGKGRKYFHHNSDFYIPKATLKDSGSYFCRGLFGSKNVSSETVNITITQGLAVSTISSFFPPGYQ
T7 sequence (Q8SPV9 24-297 limits assumed, chain 1 of 2): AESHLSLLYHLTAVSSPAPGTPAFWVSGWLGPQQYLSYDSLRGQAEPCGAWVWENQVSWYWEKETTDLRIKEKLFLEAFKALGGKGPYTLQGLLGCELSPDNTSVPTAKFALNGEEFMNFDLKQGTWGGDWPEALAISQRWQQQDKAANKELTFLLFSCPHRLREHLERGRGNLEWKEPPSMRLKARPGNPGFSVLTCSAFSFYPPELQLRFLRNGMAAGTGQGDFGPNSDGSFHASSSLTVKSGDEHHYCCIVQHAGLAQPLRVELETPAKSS
T7 sequence (Q8SPW0 21-119 limits assumed, chain 2 of 2): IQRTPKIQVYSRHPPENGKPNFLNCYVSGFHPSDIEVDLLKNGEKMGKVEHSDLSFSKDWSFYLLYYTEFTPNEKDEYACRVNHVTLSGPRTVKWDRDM
T6 sequence (P08637 17-208 F176V): as the sequence (P08637 17-208) above, with F160V counted along it

B1: 22A06-458 (antibody, human IgG1, kappa)
heavy: QVQLVQSGAEVKKPGASVKVSCKASGYTFISYGMHWVRQAPGQGLEWMGEINPHGGSTSYAQKFKGRVTMTRDTSTSTVYMELSSLRSEDTAVYYCARPSAAYSHYLGIDLWGRGTLVTVSSASTKGPSVFPLAPSSKSTSGGTAALGCLVKDYFPEPVTVSWNSGALTSGVHTFPAVLQSSGLYSLSSVVTVPSSSLGTQTYICNVNHKPSNTKVDKKVEPKSCDKTHTCPPCPAPELLGGPSVFLFPPKPKDTLYITREPEVTCVVVDVSHEDPEVKFNWYVDGVEVHNAKTKPREEQYNSTYRVVSVLTVLHQDWLNGKEYKCKVSNKALPAPIEKTISKAKGQPREPQVYTLPPSRDELTKNQVSLTCLVKGFYPSDIAVEWESNGQPENNYKTTPPVLDSDGSFFLYSKLTVDKSRWQQGNVFSCSVMHEALHNHYTQKSLSLSPGK
light: DIQMTQSPSSVSASVGDRVTITCRASQGISSWLAWYQQKPGKAPKLLIYAASRLQSGVPSRFSGSGSGTDFTLTISSLQPEDFATYYCQQANVFPLTFGGGTKVEIKRTVAAPSVFIFPPSDEQLKSGTASVVCLLNNFYPREAKVQWKVDNALQSGNSQESVTEQDSKDSTYSLSSTLTLSKADYEKHKVYACEVTHQGLSSPVTKSFNRGEC
With B1, the Kd turned out to be 24.3 nM with hFcgRI; 5220 nM with hFcgRIIb; 987 nM with hFcgRIIIa (F158); 502 nM with hFcgRIIa (R131); 574 nM with hFcgRIIa (H131); 215 nM with hFcgRIIIa (V158). In addition, the Kd in test [1] worked out at 2560 nM.
